This assay deals with T1, human Tim-3 (T cell immunoglobulin mucin domain-containing protein 3) (Homo sapiens, UniProt Q8TDQ0).
T1 construct: human Tim-3 (HAVCR2), injected as the SPR analyte; I surmise the monomeric IgV domain; also called hTim3; hTim-3
Kind of assay: SPR; Biacore T200, 37°C; antibody captured on a CM4 chip with preimmobilized anti-human IgG Fc pAb; human Tim-3 injected as analyte, single-cycle kinetics, 5-membered 5-fold dilution series, 1 uM top; 10 mM HEPES, 150 mM NaCl, 0.05% Tween 20, pH 7.4, 1 g/L BSA; 1:1 Langmuir model with mass transport. The conditions noted are these: both partners purified. Background: In SPR one partner is held on a chip, and binding of the other changes the refractive index at the surface.

T1 sequence (Q8TDQ0 22-301): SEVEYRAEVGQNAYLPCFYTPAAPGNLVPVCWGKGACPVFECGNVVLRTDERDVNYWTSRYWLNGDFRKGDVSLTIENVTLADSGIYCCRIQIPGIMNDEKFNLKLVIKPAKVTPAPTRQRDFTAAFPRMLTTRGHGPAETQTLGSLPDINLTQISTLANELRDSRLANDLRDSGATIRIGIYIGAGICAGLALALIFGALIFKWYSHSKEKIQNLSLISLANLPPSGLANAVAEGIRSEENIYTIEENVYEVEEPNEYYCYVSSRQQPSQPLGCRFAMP

B1: aTim-3.18 monoclonal antibody (antibody, V domains shown)
VH: QLQLQESGPGLVKPSETLSLTCTVSGGSISSRSYYWGWIRQPPGKGLEWIGSIYYSGFTYYQPSLKSRVTISVDTSKNQFSLKLSSVTAADTAVYYCATGGPYGDYAHWFEPWGQGTLVTVSS
VL: not shown
notes: Whole mAb from Bristol Myers Squibb, captured in SPR through an anti-human IgG Fc antibody; The isotype-matched control was an IgG4, so I surmise the mAb is a human IgG4; source: Expi293, transient transfection, purified (Protein A MabSelect SuRe)
As to B1, binding was put at a Kd of 1.8 nM; the koff (commonly the first-order rate constant of dissociation) stood at 0.0046 s⁻¹; the kon – broadly, a measure of how fast the partners come together – was determined as 2.6e+06 M⁻¹ s⁻¹.
